Laboratory results published in US6867003.

Biological target: insulin receptor partially purified from CHO-IR cells (Chinese Hamster Ovary cells expressing high levels of insulin receptors of human origin) (human) (UniProt P06213)
Experiment: cell-based or functional assay

amount giving 50% inhibition of the tyrosine kinase activity of the receptors (32P incorporation into poly Glu-Tyr): 0.13 µg
B1: GST-mGrb10 (protein, mouse, UniProt Q60760 1-621, looked up, not shown: a dimerising Fc or GST)
chain: MNNDINSSVESLNSACNMQSDTDTAPLLEDGQHASNQGAASSSRGQPQASPRQKMQRSQPVHILRRLQEEDQQLRTASLPAIPNPFPELTGAAPGSPPSVAPSSLPPPPSQPPAKHCGRCEKWIPGENTRGNGKRKIWRWQFPPGFQLSKLTRPGLWTKTTARFSKKQPKNQCPTDTVNPVARMPTSQMEKLRLRKDVKVFSEDGTSKVVEILTDMTARDLCQLLVYKSHCVDDNSWTLVEHHPQLGLERCLEDHEIVVQVESTMPSESKFLFRKNYAKYEFFKNPVNFFPDQMVNWCQQSNGGQAQLLQNFLNTSSCPEIQGFLQVKEVGRKSWKKLYVCLRRSGLYYSTKGTSKEPRHLQLLADLEESSIFYLIAGKKQYNAPNEHGMCIKPNKAKTEMKELRLLCAEDEQIRTCWMTAFRLLKYGMLLYQNYRIPQRKGLPPPFNAPMRSVSENSLVAMDFSGQIGRVIDNPAEAQSAALEEGHAWRKRSTRMNILSSQSPLHPSTLNAVIHRTQHWFHGRISREESHRIIKQQGLVDGLFLLRDSQSNPKAFVLTLCHHQKIKNFQILPCEDDGQTFFTLDDGNTKFSDLIQLVDFYQLNKGVLPCKLKHHCIRVAL
